In PMC12915131, “Balanced Expression of the Diiron Oxygenase BioE Is Essential for Biotin Homeostasis in Elizabethkingia meningoseptica” (Advanced Science, 2025) one finds stoichiometry N and Kd data, which are given here for two substances.

Assay [1] has as its target Elizabethkingia meningoseptica BioE (Elizabethkingia meningoseptica). Kind of assay: SEC; Superdex 75 (Increase) column, 20 mM Tris-HCl pH 8.0, 300 mM NaCl; oligomeric state judged from retention volume.
Assay [2] addresses Chlamydia psittaci BioE (Chlamydia psittaci). Kind of assay: SPR; […], single-cycle kinetics, 1:1 Langmuir fit; […].

stearoyl-ACP (E. coli acyl carrier protein carrying a C18 acyl group), sequence (P0A6A8 2-78): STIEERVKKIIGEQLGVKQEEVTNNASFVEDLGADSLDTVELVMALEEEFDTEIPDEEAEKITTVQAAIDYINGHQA

Substance “Elizabethkingia meningoseptica BioE (enzyme)” had a stoichiometry N in assay [1] of 2.

As to “stearoyl-ACP (E. coli acyl carrier protein carrying a C18 acyl group) (from UniProt P0A6A8 2-78) (natural protein)”, the Kd in assay [2] turned out to be 203 nM.
